# Source: a protein production outcome set (Wang et al. 2014)
# Test: label from the status in PepcDB records
# 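Note: failed if final PepcDB status was selected cloned or expressed and not failed if soluble or beyond.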
row,Sequence,protein production
1,MSTATLPHTVGKRLFRQTLLLALALSVVFSAVFTVVEYYRSKVSLNESVELLKKTHLDAITAALWSLDRQQIAAQIDGIHHYPFISYVAVVDQGGVVVESGTRSELFGDVRRIDLTATYNGRQVSLGSLYLEIDRQAIMRDALSTAAVTLLFQTLTITIVMLFTFMLFERQVTRHLAAAADYFTSFGFARVQQPLQLDKHRYGDEIDALVEAFNRMRESLAVAYQQQQGMLQAVRESEALLRAIARRIPNGGVWVVDTDGRYIMFEGSLVESLGLSGQEALGRMPGDLFGEPLADRLVGCYRLALAGGTLSEEIEYRERVLWIQFAPLEDEHGAVMAAVALGIDVTERRQAEAERREMLQRLGQAHKMEAVGRLAGGIAHDYNNKLTVILGYAHVLKLTGFQSKEAPEQLDQIIRAAEHSRDITRQLLAFTRSERVNPVRVDLNRLISQSSKSLTRLIGEDITLSHVAGADLWPVRIDPTQADQLLMNLVMNARDAIAGTGSVTIATSNVVLDRATVRHLQGASPGEYVLMTVSDTGCGMDPEVMEHIFEPFYTTKEMGKGTGLGLATVYGIVRQNGGAISVESEPGGGSVFSIYLPRFVGESHDVRRLGEVDETLPARTTLLVDDDDAVRDITALMLRRLGHTVITASDPDEAIHLCQQPGIVVDLILTDVIMPSMNGREMVRSILSHQKAAKVLYMSGYPADVVEGRGAVDADARLLSRLLKLK,failed
2,MSTDDPRFAGIARLYGIEGLARLRAAHVAIVGIGGVGSWAAEAMARSGVGEISLFDMDDVCVSNSNRQLHALDTTVGRPKVEVMAERIRAINPDCVVHAVSDFVTRDTMAECITPDMDFVIDCIDSVNAKAALISWCKRRKIQMVTTGAAGGQIDPTLIQIADLNRTFNDPLASKVRSTLRRDYGFSRTPNRHYSVPCVFSTEQLRYPKPDGSICLEKKFIGDGVKLDCAGGFGAVMMVTATFGMIAATRAVDKLVAGTRRPSERAKPAAVTANQA,failed
3,MSTETIEIFNNSDEWANQLKHALSKGENLALLHGLTPDILDRIYAYAFDYHEKGNITDAEIYYKFLCIYAFENHEYLKDFASVCQPKKKYQQAYDLYKLSYNYFPYDDYSVIYRMGQCQIGAKNIDNAMQCFYHIINNCEDDSVKSKAQAYIELLNDNSEDNGLEHHHHHH,failed
4,MSTIFDTHWPWMGIGIACVLIILLFFTNTLRSDLRVNRWYDPFWLAWFSSTAYFIHNFEEYGIDLFGRHFEFPHLMTQTMHITPEISFFTMINIPLIWIAGPILAMMSKHRPVISLIMTGLMFTNALSHIVPLISSGMYTSGLFTSIVIFIPGSLWIYYIRFIKGNLRWSILIVSLIPPIITQGLLMLSILMYRNDFLNDTTVTVFELLNGCLFIIIAFIMEKSFKRKYKN,failed
5,MSTKGTILVTGGAGYIGSHTAVELLAHGYDVVIADNLVNSKREAIARIEKITGKTPAFHETDVSDERALARIFDAHPITAAIHFAALKAVGESVAKPIEYYRNNLDSLLSLLRVMRERAVKRIVFSSSATVYGVPERSPIDETFPLSATNPYGQTKLMAEQILRDVEAADPSWRVATLRYFNPVGAHESGLIGEDPAGIPNNLMPYVAQVAVGKLEKLRVFGSDYPTPDGTGVRDYIHVVDLARGHIAALDALERRDASLTVNLGTGRGYSVLEVVRAFEKASGRAVPYELVARRPGDVAECYANPAAAAETIGWKAERDLERMCADHWRWQENNPRGFV,not failed
6,MSTKSKIFLVLLVFCPLSFAAHWLGWGETTVFILAGLAIVPLAAFMGTATEEIAVVIGPNAGGLLNATFGNATELILAYIALKEGLIEVVKATLTGSIIGNLLLVMGFAVFLGGLRYKEQNFQPLAARLNASTMNLGVVAILLPTALQYTSTGVEETVLQNLSVAVAVVLIGVYLLSLVFSMGTHAYLYDVGVAENMEMPELGEDVSEPEPPTEEEKPNLWLWTGVLLVVTLGVAVESELLVGSLEVATESLGLTALFTGVIVLPIIGNAAEHATAVTVAMKDKMDLSMSVVMGSSLQIAFFVAPVLVIVGWAIGQPMDLNFNPFELVAVLVAVLIVNSISSDGTSNWLEGILLLATYAIVALAFFFHPTLV,failed
7,MSTLKLFVHNHSSKGDQSFLKTITFAITHFTVAFTVAYLLTGDILIGSLIAMVEPAINTVAYFFHEKIWARHQRNTTANAMNLRQNTH,failed
8,MSTPSHLNAQPLVWGHGPRTFEVFLEPTCPYSVRAFNKLDDLLDEVGADNVTIKIRLQSQPWHLFSGVIVRCILAASTLPHGREQAHKVMQAVADHREEFEFTDHCSGPNMNATPQQIIERIERYSHVLLGAAFARPELQDVIKWHSKYARQNGIHVSPTFMVNGLVQPDLGSGDDVSVWAARIMA,failed
9,MSTPSPALFFNTVNAYQRSAAIKAAVELNVFTAISQGIESSQSLAQKCQTSERGMRMLCDYLVIIGFMTKQAEGYRLTSDSAMFLDRQSKFYVGDAIEFLLSPMITNGFNDLTAAVLKGGTAISSEGTLSPEHPVWVQFAKAMSPMMANPAQLIAQLVNENKIEPLKVLDISASHGLFGIAVAQHNPNAEIFGVDWASVLEVAKENARIQGVASRYHTIAGSAFEVDYGNDYDLVLLPNFLHHFDVATCEQLLRKIKTALAVEGKVIVFDFIPNSDRITPPDAAAFSLVMLATTPNGDAYTFAEYESMFSNAGFSHSQLHSLPTTQQQVIVAYK,not failed
10,MSTPTPDTDVEQVGLANTAFYEAMERGDFETLSSLWLTPADLGVDEEYHDPADAGVVSCVHPGWPVLSGRGEVLRSYALIMANTEYIQFFLTDVHVSVTGDTALVTCTENILSGGPPPDDSDELGPLVGQLVVATNVFRRTPDGWKLWSHHASPVLAETGAEEGDESPD,not failed
11,MSTRWLLLAAFAAGAALFSSFLKALFFAACLACAFRPLSRRLEAWRGPLVAAGLTTALAGMCLVIPVAVVGSLAAPQAVQGLAVLDGLRESNWFTSPEAQQLVDDIDARLRDLPGLEGGLRGLARNAAGILGTAARTALAGGVGLAGGALNAVLQGFIVLMLIFVFTAYARHIQRFALALLPMPRAMLDRCVTAFRGAVVGVLAGVVLVAAIQGVLCGIGFAVAGVPQAAFWGFIAAMVAPIPVVGTMAVWIPACAWLWFAGKTTAAIGLVLWSAIIVSGSDNILRPIFLKTGIEAPIALIFLAIICGLAAFGPMGLLLGPVLLALGLQLAREGLPGAPGVSGVSGAVEPRE,failed
12,MSTSAIDPVSFSLYAKDFTRFAQELGASFERYGFAVLSDYDLDQARIDAAVDSAKAFFALPVETKKQYAGVKGGARGYIPFGVETAKGADHYDLKEFWHMGRDLPPGHRFRAHMADNVWPAEIPAFKHDVSWLYNSLDGMGGKVLEAIATYLKLERDFFKPTVQDGNSVLRLLHYPPIPKDATGVRAGAHGDINTITLLLGAEEGGLEVLDRDGQWLPINPPPGCLVINIGDMLERLTNNVLPSTVHRVVNPPPERRGVPRYSTPFFLHFASDYEIKTLQNCVTAENPDRYPESITADEFLQQRLREIKLA,not failed
13,MSTSDSCYNTGYILRICAIAALGGILFGYDTAVISGAIGSLTSYFHLSPAETGWAVSCVVVGCVIGSFSAGYLSKRFGRKKSLMVSALLFTISAVGTSLSYTFTHFVIYRIIGGLAVGLAATVSPMYMSEVSPKNMRGRALSMQQFAIVFGQILIFYVNYKIASIAADTWLIELGWRYMFAAGIIPCILFCILVFLIPESPRWMMMIGREEETLKILTKISNEEHARHLLADIKTSLQNDQLNAHQKLNYRDGNVRFILILGCMIAMLQQVTGVNVMMYYAPIVLKDVTGSAQEALFQTIWIGVIQLIGSIIGAMIMDKMGRLSLMRKGTIGSIIGLLLTSWALYSQATGYFALFGMLFFMIFYALSWGVGAWVLISEIFPNRMRSQGMSISVGFMWMANFLVSQFFPMINENPYLLSHFHGAFPMWIFAICCIFSYFFICRYLPETKGISLEKMESVVLAKRRKKLQPIQTERYSD,failed
14,MSTSFTMIGGEGPNSYREHSKYQGALVIAAKEKINEAISTKLDIDFTSNLVNIADFGCSSGPNTFTAVQTLIDAVENKYKKESNIEGIEFQVFFNDSSNNDFNTLFKTLPPARLYFASGVPGSFFGRVLPKNSLHVGVSSYSLHFVSKVPKEIKDRDSLVWNKDIHCSGSSKEVVKLYLGQYKIDVGSFLTARAQELVSGGLLLLLGSCRPTGVQMFETVEGMMIDFIGSSLNEIANQGLIDQQKLDTFKLPIYAPNVDELKQIIEDNKCFTIEAFEKISHAKGEYPLDPEYLTSAFKVTVGGSVASLFGQDGMEKTYELVKEKTQEMLPQIAKAKPGMQYLIVLRRN,failed
15,MSTSLTIRLVAEADWPALHALDQIIWTKKNTPAEIQPLSLAAYQEKMKDETIFVAISGQQLAGFIEVHPPTSLAAHQKQWLLSIGVSPDFQDQGIGGSLLSYIKDMAEISGIHKLSLRVMATNQEAIRFYEKHGFVQEAHFKEEFYINGHYCDDYQYAYFIEK,not failed
